Here are results for 1 molecule from paper PMC11078399.

This test concerns the target T1, Fzo1 (yeast mitofusin), wild type (S. cerevisiae) (UniProt P38297).
T1 sequence: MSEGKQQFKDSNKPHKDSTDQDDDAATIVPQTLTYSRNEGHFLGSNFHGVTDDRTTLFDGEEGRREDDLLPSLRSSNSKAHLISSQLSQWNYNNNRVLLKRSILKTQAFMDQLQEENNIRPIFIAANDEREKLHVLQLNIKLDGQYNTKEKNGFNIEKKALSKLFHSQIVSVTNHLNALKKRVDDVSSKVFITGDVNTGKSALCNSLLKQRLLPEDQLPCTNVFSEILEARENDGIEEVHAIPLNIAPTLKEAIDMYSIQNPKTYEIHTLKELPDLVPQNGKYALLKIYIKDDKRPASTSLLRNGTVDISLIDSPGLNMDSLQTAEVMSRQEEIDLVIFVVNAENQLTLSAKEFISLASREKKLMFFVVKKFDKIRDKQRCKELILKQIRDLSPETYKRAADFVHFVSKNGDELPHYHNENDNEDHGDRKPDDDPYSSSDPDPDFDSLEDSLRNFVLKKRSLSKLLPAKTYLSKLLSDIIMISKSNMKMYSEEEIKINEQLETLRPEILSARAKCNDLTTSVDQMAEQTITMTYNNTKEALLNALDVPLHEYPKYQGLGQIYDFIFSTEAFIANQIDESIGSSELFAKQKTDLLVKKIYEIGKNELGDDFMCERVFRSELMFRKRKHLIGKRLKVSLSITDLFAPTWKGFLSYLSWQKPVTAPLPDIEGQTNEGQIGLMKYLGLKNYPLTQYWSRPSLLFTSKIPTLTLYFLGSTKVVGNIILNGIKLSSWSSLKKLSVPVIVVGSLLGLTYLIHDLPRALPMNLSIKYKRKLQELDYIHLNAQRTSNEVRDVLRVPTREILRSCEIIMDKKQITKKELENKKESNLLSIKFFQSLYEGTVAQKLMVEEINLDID

B1: Fzo1 S201N (GTPase domain mutant) (natural protein)
chain: MSEGKQQFKDSNKPHKDSTDQDDDAATIVPQTLTYSRNEGHFLGSNFHGVTDDRTTLFDGEEGRREDDLLPSLRSSNSKAHLISSQLSQWNYNNNRVLLKRSILKTQAFMDQLQEENNIRPIFIAANDEREKLHVLQLNIKLDGQYNTKEKNGFNIEKKALSKLFHSQIVSVTNHLNALKKRVDDVSSKVFITGDVNTGKNALCNSLLKQRLLPEDQLPCTNVFSEILEARENDGIEEVHAIPLNIAPTLKEAIDMYSIQNPKTYEIHTLKELPDLVPQNGKYALLKIYIKDDKRPASTSLLRNGTVDISLIDSPGLNMDSLQTAEVMSRQEEIDLVIFVVNAENQLTLSAKEFISLASREKKLMFFVVKKFDKIRDKQRCKELILKQIRDLSPETYKRAADFVHFVSKNGDELPHYHNENDNEDHGDRKPDDDPYSSSDPDPDFDSLEDSLRNFVLKKRSLSKLLPAKTYLSKLLSDIIMISKSNMKMYSEEEIKINEQLETLRPEILSARAKCNDLTTSVDQMAEQTITMTYNNTKEALLNALDVPLHEYPKYQGLGQIYDFIFSTEAFIANQIDESIGSSELFAKQKTDLLVKKIYEIGKNELGDDFMCERVFRSELMFRKRKHLIGKRLKVSLSITDLFAPTWKGFLSYLSWQKPVTAPLPDIEGQTNEGQIGLMKYLGLKNYPLTQYWSRPSLLFTSKIPTLTLYFLGSTKVVGNIILNGIKLSSWSSLKKLSVPVIVVGSLLGLTYLIHDLPRALPMNLSIKYKRKLQELDYIHLNAQRTSNEVRDVLRVPTREILRSCEIIMDKKQITKKELENKKESNLLSIKFFQSLYEGTVAQKLMVEEINLDID
Regarding B1, the ex vivo PerMit contact assay with mitochondria from pex34Δ cells: decrease of specific mitochondrial attachment to peroxisome beads with FZO1 S201N against WT FZO1 mitochondria was 17%.
